The source of these data is paper PMC12559291.

“And” between values parts separate entries of the source, which are not always exact repeats. Identical values can stand only once.

Assay [1] addresses galectin-3 (Gal3), human recombinant, made as Gal3-TEV-6xHis and freed of the tag by TEV protease (human) (UniProt P17931). Put plainly: cryo-EM structure; rat α5β1 integrin in GSL-containing nanodiscs on cobalt beads, sialidase-treated, 4 μM Gal3 for 2 h at 21 °C, eluted with 10 mM EDTA and vitrified at once; three subsets at 7.4, 8.5 and 7.6 Å; Gal3 CRDs (PDB 1KJL) fitted as rigid bodies.

Assay [2] has as its target α5β1 integrin purified from rat liver (rat) (UniProt P49134). The description is as above.
In assay [3] the target is galectin-3 (Gal3), human recombinant, made as Gal3-TEV-6xHis and freed of the tag by TEV protease (human) (UniProt P17931). Briefly: negative stain EM; lactose-washed RPE-1 cells with exogenous Gal3 (50 μg/mL) for 30 min at 4 °C; surface-bound Gal3 eluted with I3; 2D classification of the eluted particles in cryoSPARC.
Assay [4] concerns the target α5β1 integrin purified from rat liver (rat) (UniProt P49134). Briefly: single-molecule photobleaching (TIRF); sialidase-treated rat α5β1 integrin in biotinylated peptidiscs complexed with 4 μM Gal3-Cy3 on cobalt beads, eluted with EDTA, immobilised on neutravidin-coated glass; 21 °C.
For assay [5] the target is unchanged. Briefly: cryo-EM structure; rat α5β1 integrin in peptidiscs on cobalt beads, sialidase-treated, 4 μM Gal3 for 2 h at 21 °C, eluted with 10 mM EDTA and vitrified at once; 6.9 Å.
The target in assay [6] is galectin-3 (Gal3), human recombinant, made as Gal3-TEV-6xHis and freed of the tag by TEV protease (human) (UniProt P17931). Briefly: negative stain EM; Gal3 or Gal3∆Nter (4 μM, 2 h at 21 °C) on inactive rat α5β1 integrin in nanodiscs held on cobalt beads, washed, eluted with 50 μM I3; the eluted particles counted as monomers or ring-shaped oligomers.

As usually defined, the stoichiometry N is a count of units in the complex or per binding partner. On to “galectin-3 (Gal3), human recombinant, made as Gal3-TEV-6xHis and freed of the tag by TEV protease (from UniProt P17931 1-250) (natural protein)”, for which the stoichiometry N in assay [1] was 2 and 3 and 4; in assay [2] it was 2 and 3 and 4; in assay [3], 2 and 3 and 4; in assay [4] it was less than 4; in assay [5], 2. For the same substance, the percent of oligomer particles classed as dimers in assay [3] is 37%. Also, in assay [3], the percent of oligomer particles classed as tetramers was found to be 22%. The percent of oligomer particles classed as trimers in assay [3] is 41%. The percent of eluted Gal3 particles that are ring-shaped oligomers in assay [6] is 40%.
